Our source for the Kd, koff and kon values is patent US20260207767A1 (ANAVEON, published 2026).

Usually Kd stands for the concentration at which binding is half-saturated. Low readings indicate higher affinity, high ones lower affinity. As a reminder, the koff is the rate constant with which the complex falls apart. The low end stands for slow dissociation, the high end for fast dissociation. One may read the kon as a measure of how fast the partners come together. A higher kon goes with fast association.

Assay [1] has as its target T1, cynoPD-1 His (AcroBiosystems PD1-C5223) (cynomolgus monkey, UniProt B0LAJ3 25-170).
T1 construct: also called cPD-1; cynomolgus PD-1 His-tagged
Description: SPR, Ab captured, PD-1 analyte. The procedure: (§1) 10 mM glycine (pH 1.5) as regeneration buffer was injected to flow cells following every dissociation phase.

Another assay concerns the target T2, hPD-1 His-tagged (human, UniProt Q15116 25-167).
T2 construct: also called recombinant hPD-1 (AcroBio)
Description: SPR, Ab captured, PD-1 analyte. The procedure: as §1

T2 sequence (Q15116 25-167 limits assumed): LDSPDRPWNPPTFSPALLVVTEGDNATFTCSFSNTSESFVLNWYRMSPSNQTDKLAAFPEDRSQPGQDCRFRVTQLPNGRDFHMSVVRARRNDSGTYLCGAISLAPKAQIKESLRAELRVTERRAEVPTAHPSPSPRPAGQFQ
T1 sequence (B0LAJ3 entry or part of it limits assumed): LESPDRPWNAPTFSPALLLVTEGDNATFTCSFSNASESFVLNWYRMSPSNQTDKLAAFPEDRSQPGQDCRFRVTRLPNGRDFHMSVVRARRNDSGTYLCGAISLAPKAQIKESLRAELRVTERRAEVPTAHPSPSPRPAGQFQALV

B1: 21A08Ap2 (antibody, V domains shown)
VH: EVQLLESGGGLVQPGGSLRLSCAASGFTFSINAMTWVRQAPGKGLEWVSTISGSGFSTYYADSLKGRFTISRDNSKNTLYLQMNSLRAEDTAVYYCAKEVYGDYWGQGTLVTVSS
VL: RSVLTQPPSASGTPGQRVSISCSGASSNIGSSSVFWYQQLPGTAPKLLIYSNNQRPSGVPDRFSGSKSGTSASLAISGLRSEDEADYYCAAWDDSLSIWVFGGGTKLTVL
notes: IgG with lambda light chain
For B1, in assay [1], binding was characterised by a dissociation constant (Kd) of 3.2 nM, the koff was determined as 0.00019 s⁻¹ and the kon came to 59000 M⁻¹ s⁻¹. Moreover, in the assay with hPD-1 His-tagged, the Kd amounted to 0.66 nM, the koff is 4.2e-05 s⁻¹ and the kon is 64000 M⁻¹ s⁻¹.

B2: 21A08Ap3 (antibody, V domains shown)
VH: B1 VH
VL: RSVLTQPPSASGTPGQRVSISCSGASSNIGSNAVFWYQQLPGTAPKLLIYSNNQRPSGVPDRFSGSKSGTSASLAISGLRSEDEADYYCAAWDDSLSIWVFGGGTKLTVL
notes: IgG
On to B2, for which, in assay [1], binding was put at a Kd of 4.67 nM, the dissociation rate constant (koff) was determined as 0.00025 s⁻¹ and the kon was determined as 55000 M⁻¹ s⁻¹. In the assay with hPD-1 His-tagged, this molecule displayed a Kd of 0.58 nM, a koff of 3.5e-05 s⁻¹ and a kon of 60000 M⁻¹ s⁻¹.
